Bridges are numbered along the chain shown (N, C = ends). Where no end group is shown, it is not given here. [ ]: non-standard residue; d: D form.
Biological target: mouse melanocortin 4 receptor fused to EGFP (mouse) (UniProt P56450)
Sequence (P56450 whole entry, the tested form may be a part): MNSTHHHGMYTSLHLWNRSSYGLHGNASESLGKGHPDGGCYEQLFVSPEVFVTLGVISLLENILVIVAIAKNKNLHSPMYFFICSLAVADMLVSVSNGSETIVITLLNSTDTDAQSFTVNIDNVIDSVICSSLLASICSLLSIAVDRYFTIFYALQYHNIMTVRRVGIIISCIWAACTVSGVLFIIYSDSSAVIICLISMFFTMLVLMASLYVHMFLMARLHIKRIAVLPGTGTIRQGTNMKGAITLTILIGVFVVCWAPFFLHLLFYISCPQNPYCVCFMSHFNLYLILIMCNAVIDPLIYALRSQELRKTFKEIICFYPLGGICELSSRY

Row | cAMP accumulation (Cisbio HTRF) in HEK293 cells transiently expressing mouse MC4R-EGFP: EC50 [nM] | cAMP accumulation (Cisbio HTRF) in HEK293 cells transiently expressing mouse MC4R-EGFP: Emax (normalised to NDP-α-MSH) [%] | Binder
1 | 150 | 97 | RGGRLCYCH[dF]HWCFCVGR-NH2 (disulfide 8-13, 6-15; N-terminus assumed; SMILES CC(C)C[C@H](NC(=O)[C@H](CCCNC(=N)N)NC(=O)CNC(=O)CNC(=O)[C@@H](N)CCCNC(=N)N)C(=O)N[C@H]1CSSC[C@@H](C(=O)N[C@H](C(=O)NCC(=O)N[C@@H](CCCNC(=N)N)C(N)=O)C(C)C)NC(=O)[C@H](Cc2ccccc2)NC(=O)[C@@H]2CSSC[C@H](NC(=O)[C@H](Cc3ccc(O)cc3)NC1=O)C(=O)N[C@@H](Cc1c[nH]cn1)C(=O)N[C@H](Cc1ccccc1)C(=O)N[C@@H](Cc1c[nH]cn1)C(=O)N[C@@H](Cc1c[nH]c3ccccc13)C(=O)N2) [protegrin-4-like peptide 2]
2 | 210 | 99 | RGGRLCYCH[dF]RWCFCVGR-NH2 (disulfide 8-13, 6-15; N-terminus assumed; SMILES CC(C)C[C@H](NC(=O)[C@H](CCCNC(=N)N)NC(=O)CNC(=O)CNC(=O)[C@@H](N)CCCNC(=N)N)C(=O)N[C@H]1CSSC[C@@H](C(=O)N[C@H](C(=O)NCC(=O)N[C@@H](CCCNC(=N)N)C(N)=O)C(C)C)NC(=O)[C@H](Cc2ccccc2)NC(=O)[C@@H]2CSSC[C@H](NC(=O)[C@H](Cc3ccc(O)cc3)NC1=O)C(=O)N[C@@H](Cc1c[nH]cn1)C(=O)N[C@H](Cc1ccccc1)C(=O)N[C@@H](CCCNC(=N)N)C(=O)N[C@@H](Cc1c[nH]c3ccccc13)C(=O)N2) [protegrin-4-like peptide 3]

Source: article PMC10580383, “Development of Melanocortin 4 Receptor Agonists by Exploiting Animal-Derived Macrocyclic, Disulfide-Rich Peptide Scaffolds” (ACS Pharmacology & Translational Science, 2023)
